The record followed here is US8029979B2, “Method for determining the substrate specificity of an enzyme” (JPT Peptide Technologies GmbH, priority 2001, dated 2011).

Assay [1] has as its target T1, protein kinase A (Bos taurus, UniProt P00517).
T1 construct: purchased Sigma P26452 as printed
Put plainly: Incubation of various modified surfaces (glass, cellulose, polypropylene) with protein kinase A (FIG. 2, Example 30). In kind it is biochemical. The conditions noted are these: protein kinase A 2 U/mL, 30 minutes at 25° C. As for the experimental part:
FIG. 2. The peptide Leu-Arg-Arg-Ala-Ser-Leu-Gly-NH2 and the control peptide […], each modified at the N-terminus with the dipeptide cysteinyl-β-alanine, were coupled to a maleinimido-functionalised surface by a Michael addition (Example 1; maleinimidobutyryl-β-alanine-functionalised cellulose as well as maleinimidobutyryl-β-alanine-functionalised, modified polypropylene membranes). The surfaces thus modified were first pre-incubated for 10 minutes using 10 mL of 100 μM ATP solution in 50 mM of sodium phosphate buffer pH 7.5. […] (Example 30). The phosphorylation of the corresponding peptides was detected using a FUJIFILM PhosphorImager. The signal intensity of the respective spot is given below the figures. […] In the case of the modified glass surfaces, however, the signal for the substrate amino acid sequence is a factor of 4-5 larger than the signal for the corresponding control amino acid sequence. […]
After drying the glass surface the quantity of radioactive phosphate incorporated in the glass-surface-bound peptides was determined using a PhosphorImager system (FLA-3000, FUJIFILM) (see FIG. 2).

The target in assay [2] is T1, protein kinase A. Briefly: Incubation of modified glass surface with different concentrations of protein kinase A (FIG. 4, Example 25). In kind it is biochemical. The conditions noted are these: protein kinase A 1 U/mL or 10 U/mL, 30 min at 25° C. As for the experimental part:
FIG. 3. The peptide Leu-Arg-Arg-Ala-Ser-Leu-Gly-NH2, modified at the N-terminus with the dipeptide cysteinyl-β-alanine, was coupled to maleinimido-functionalised surfaces by a Michael addition (maleinimido-functionalised glass surface, Sigma, Silane-Prep™, S4651; as well as maleinimidobutyryl-β-alanine-functionalised, modified polypropylene membranes). The modified glass surfaces were first pre-incubated for 10 minutes using 20 mL of 100 μM ATP solution in 50 mM of sodium phosphate buffer pH 7.5. […] (Example 31). The phosphorylation of the corresponding peptides was detected using a FUJIFILM PhosphorImager. The signal intensity of the respective spot is given below the figures. […] FIG. 4. […] After incubation for 30 min at 25° C. the phosphorylation of the corresponding peptides was detected using a FUJIFILM PhosphorImager. […] After incubation for 30 min at 25° C. the phosphorylation of the corresponding peptides was detected using a FUJIFILM PhosphorImager. […]
After drying the glass surface the quantity of radioactive phosphate incorporated in the glass-surface-bound peptides was determined using a PhosphorImager system (FLA-3000, FUJIFILM) (see FIG. 4).

BA1 = not defined here

As for “Cys-BA1-Leu-Arg-Arg-Ala-Ser-Leu-Gly-NH2 ({Cys-BA1}-LRRASLG-NH2; reading uncertain; also: printed as Cys-BA1-Leu-Arg-Arg-Ala-Ser-Leu-Gly-NH2) [compound 85]”, the “kinase-mediated phosphorylation signal on porous surfaces” value in assay [1] (modified cellulose or polypropylene surfaces) is “only non-specific binding of ATP or kinase to the peptides is measured”. Moreover, in assay [1] (modified glass surfaces), the “signal for the substrate amino acid sequence larger than the signal for the corresponding control amino acid sequence” value is 4-5 factor. In assay [2], the “signal intensity for the purified amino acid sequence higher than that for the corresponding control amino acid sequence” value is “approximately 300 times” and the “signal intensity for the purified amino acid sequence higher than that for the synthesis product” value came out at 500%.
